These results are taken from US20190106502A1.

For this assay, the target named is CD20 (B-lymphocyte antigen CD20) (human) (UniProt P11836). As to the kind of experiment: cell-based or functional assay.
Sequence of CD20 (B-lymphocyte antigen CD20) (human) (P11836 whole entry): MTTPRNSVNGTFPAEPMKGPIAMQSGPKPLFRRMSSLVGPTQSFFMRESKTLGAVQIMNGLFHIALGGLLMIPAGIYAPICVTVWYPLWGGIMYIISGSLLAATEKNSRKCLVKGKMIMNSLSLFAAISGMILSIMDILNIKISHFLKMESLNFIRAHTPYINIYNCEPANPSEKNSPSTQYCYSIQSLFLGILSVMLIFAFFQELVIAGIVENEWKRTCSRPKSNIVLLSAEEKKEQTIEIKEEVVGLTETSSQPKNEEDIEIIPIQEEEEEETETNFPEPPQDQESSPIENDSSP
In turn, “GA101-P151F P329G L234A L235A (antibody)” gave an EC50 (ng/ml) values of direct cell death induction using Z-138 (% total AnnV positive cells) of 133 ng/mL.
As to GA101-V11F P329G L234A L235A (antibody), the EC50 (ng/ml) values of direct cell death induction using Z-138 (% total AnnV positive cells) worked out at 131 ng/mL.
For the substance “GA101-hinge del P329G L234A L235A (antibody)”, the EC50 (ng/ml) values of direct cell death induction using Z-138 (% total AnnV positive cells) came to 155 ng/mL.
Turning to “GA101-V11F P151F (on GA101 P329G L234A L235A backbone) (antibody)”, the EC50 (ng/ml) values of direct cell death induction using Z-138 (% total AnnV positive cells) came out at 112 ng/mL.
With “GA101-P151F hin del (on GA101 P329G L234A L235A backbone) (antibody)”, the EC50 (ng/ml) values of direct cell death induction using Z-138 (% total AnnV positive cells) is 68.4 ng/mL.
As to “GA101-V11F P151F hinge del (on GA101 P329G L234A L235A backbone) (antibody)”, the EC50 (ng/ml) values of direct cell death induction using Z-138 (% total AnnV positive cells) is 171 ng/mL.
